Measurements from US20110076248A1 (MYRIAD GENETICS, published 2011).
Residue numbers refer to the chain shown, from its start. Numbers in names are those of the source.

T1: activation domain-Tsg101 construct (full-length Tsg101 in GADpN2: SV40NLS-GAL4 (768-881)-Tsg101) (human, UniProt P04386 768-881; Q99816 1-390)
T1 sequence: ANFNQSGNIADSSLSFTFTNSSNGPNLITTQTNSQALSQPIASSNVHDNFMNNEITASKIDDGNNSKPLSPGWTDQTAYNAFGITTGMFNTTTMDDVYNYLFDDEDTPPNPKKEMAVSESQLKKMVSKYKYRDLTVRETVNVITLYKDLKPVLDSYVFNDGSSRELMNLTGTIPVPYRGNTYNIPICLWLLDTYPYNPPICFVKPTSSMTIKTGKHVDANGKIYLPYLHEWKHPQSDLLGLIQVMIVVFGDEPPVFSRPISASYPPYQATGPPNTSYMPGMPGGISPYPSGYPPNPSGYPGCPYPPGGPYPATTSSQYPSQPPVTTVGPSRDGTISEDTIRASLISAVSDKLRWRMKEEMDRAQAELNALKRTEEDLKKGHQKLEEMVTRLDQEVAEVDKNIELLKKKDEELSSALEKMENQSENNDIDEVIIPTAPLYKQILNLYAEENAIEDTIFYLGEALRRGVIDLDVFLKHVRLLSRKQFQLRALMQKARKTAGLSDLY

B1: binding domain-wild type p6gag construct (HIV1 p6 peptide of the HIV1.NL43 strain GAG protein in pGBT.Q) (other)
chain: LQSRPEPTAPPEESFRFGEETTTPSQKQEPIDKELYPLASLRSLFGSDPSSQ
B2: binding domain-mutant p6gag construct p6(P10L) (other)
chain: B1 chain with P10L
notes: The mutation number counts on p6gag
B3: binding domain-mutant p6gag construct p6(A9R) (other)
chain: B1 chain with A9R
notes: as for B2
B4: binding domain-mutant p6gag construct p6(P7L) (other)
chain: B1 chain with P7L
notes: as for B2

Tests used:
[1] = target: T1, activation domain-Tsg101 construct …; experiment: cell-based or functional assay
[2] = target: T1, activation domain-Tsg101 construct …; experiment: yeast two-hybrid, filter lift β-Gal assay

| Binder | β-galactosidase activity in the two-hybrid liquid culture assay [1] [fold over background] | binding result [2] |
| --- | --- | --- |
| B1 | > 300 |  |
| B2 |  | no binding |
| B3 |  | no binding |
| B4 |  | no binding |
